Data taken from the supplement of paper PMC9112550, “Optimization of the antimicrobial peptide Bac7 by deep mutational scanning” (BMC Biology, 2022).

Test system: Escherichia coli TOP10
Experiment: shrunken log2 fold change of peptide-encoding DNA abundance (4.5 h post-induction vs induction); higher = less antimicrobial activity (less host growth inhibition)
Details: time post-induction: 4.5 h; library: site-saturation at positions 5, 18, 19, 20
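Also: peptides expressed intracellularly from a pBAD plasmid library in pooled LB shake-flask culture, induced with 0.3% L-arabinose, DNA abundance read by NGS, three biological replicates, DESeq2 with apeglm shrinkage.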

| Sequence | shrunken log2 fold change |
| --- | --- |
| RRIRMRPPRLPRPRPRPIRCPRP | 0.086 |
| RRIRCRPPRLPRPRPRPYCYPRP | -0.669 |
| RRIRRRPPRLPRPRPRPCHWPRP | 0.092 |
| RRIRMRPPRLPRPRPRPSTNPRP | 0.0712 |
| RRIRERPPRLPRPRPRPTSFPRP | 0.0302 |
| RRIRNRPPRLPRPRPRPGCDPRP | -0.0442 |
| RRIRFRPPRLPRPRPRPPIPPRP | 0.257 |
| RRIRRRPPRLPRPRPRPNCLPRP | 0.312 |
| RRIRRRPPRLPRPRPRPWQVPRP | 0.0694 |
| RRIRERPPRLPRPRPRPLDNPRP | -0.487 |
| RRIRPRPPRLPRPRPRPWMAPRP | -0.113 |
| RRIRVRPPRLPRPRPRPHGLPRP | 0.0861 |
| RRIRERPPRLPRPRPRPDWNPRP | -0.631 |
| RRIRERPPRLPRPRPRPHHSPRP | -0.603 |
| RRIRHRPPRLPRPRPRPPVDPRP | 1.89 |
| RRIRVRPPRLPRPRPRPQDEPRP | -0.114 |
| RRIRKRPPRLPRPRPRPNTIPRP | 0.0945 |
| RRIRMRPPRLPRPRPRPSAQPRP | 0.623 |
| RRIRPRPPRLPRPRPRPNLYPRP | -0.276 |
| RRIRMRPPRLPRPRPRPPYYPRP | -0.243 |
| RRIRVRPPRLPRPRPRPSQVPRP | -0.215 |
| RRIRHRPPRLPRPRPRPYLKPRP | -0.298 |
| RRIRQRPPRLPRPRPRPSCWPRP | 0.188 |
| RRIRHRPPRLPRPRPRPKQCPRP | -0.224 |
| RRIRVRPPRLPRPRPRPQIQPRP | -0.034 |

| Sequence | shrunken log2 fold change |
| --- | --- |
| RRIRMRPPRLPRPRPRPLCPPRP | -0.0953 |
| RRIRDRPPRLPRPRPRPHKHPRP | -0.217 |
| RRIRKRPPRLPRPRPRPCTWPRP | -0.15 |
| RRIRGRPPRLPRPRPRPHRHPRP | 0.107 |
| RRIRSRPPRLPRPRPRPCIIPRP | 0.00867 |
| RRIRHRPPRLPRPRPRPLPGPRP | 0.103 |
| RRIRRRPPRLPRPRPRPCTWPRP | -0.0877 |
| RRIRRRPPRLPRPRPRPKPEPRP | 0.489 |
| RRIRTRPPRLPRPRPRPSGMPRP | -0.34 |
| RRIRTRPPRLPRPRPRPTDAPRP | 0.471 |
| RRIRQRPPRLPRPRPRPFQLPRP | -0.00805 |
| RRIRIRPPRLPRPRPRPETIPRP | -0.115 |
| RRIRERPPRLPRPRPRPTERPRP | 0.0425 |
| RRIRQRPPRLPRPRPRPTGSPRP | -0.0708 |
| RRIRNRPPRLPRPRPRPFYTPRP | -1.29 |
| RRIRYRPPRLPRPRPRPILCPRP | -0.0389 |
| RRIRARPPRLPRPRPRPPVPPRP | 0.638 |
| RRIRSRPPRLPRPRPRPWPTPRP | 0.219 |
| RRIRTRPPRLPRPRPRPQVPPRP | 0.101 |
| RRIRDRPPRLPRPRPRPISLPRP | -0.0081 |
| RRIRRRPPRLPRPRPRPMKAPRP | 0.0483 |
| RRIRSRPPRLPRPRPRPRRTPRP | 0.183 |
| RRIRARPPRLPRPRPRPQKLPRP | 0.298 |
| RRIRVRPPRLPRPRPRPTISPRP | -0.12 |
| RRIRSRPPRLPRPRPRPCDVPRP | -0.0124 |

| Sequence | shrunken log2 fold change |
| --- | --- |
| RRIRCRPPRLPRPRPRPISHPRP | -0.486 |
| RRIRCRPPRLPRPRPRPCAMPRP | -0.103 |
| RRIRFRPPRLPRPRPRPKTGPRP | 0.072 |
| RRIRDRPPRLPRPRPRPYHAPRP | -0.0316 |
| RRIRFRPPRLPRPRPRPKAAPRP | 0.264 |
| RRIRVRPPRLPRPRPRPPTDPRP | 0.116 |
| RRIRDRPPRLPRPRPRPTYIPRP | -0.393 |
| RRIRYRPPRLPRPRPRPAYCPRP | -0.0229 |
| RRIRGRPPRLPRPRPRPILEPRP | 0.229 |
| RRIRRRPPRLPRPRPRPLCFPRP | 0.898 |
| RRIRRRPPRLPRPRPRPDIAPRP | -0.0619 |
| RRIRSRPPRLPRPRPRPKWFPRP | -0.0561 |
| RRIRYRPPRLPRPRPRPYMCPRP | -0.0233 |
| RRIRERPPRLPRPRPRPNEIPRP | -0.181 |
| RRIRMRPPRLPRPRPRPNEWPRP | 0.23 |
| RRIRCRPPRLPRPRPRPDYCPRP | 0.25 |
| RRIRTRPPRLPRPRPRPHKVPRP | -0.00818 |
| RRIRNRPPRLPRPRPRPGFHPRP | -0.0379 |
| RRIRKRPPRLPRPRPRPYRYPRP | -0.14 |
| RRIRNRPPRLPRPRPRPWPRPRP | -0.0347 |
| RRIRFRPPRLPRPRPRPGETPRP | 0.138 |
| RRIRSRPPRLPRPRPRPDYFPRP | -0.133 |
| RRIRDRPPRLPRPRPRPEWRPRP | 1.08 |
| RRIRNRPPRLPRPRPRPMHTPRP | 0.0242 |
| RRIRGRPPRLPRPRPRPATGPRP | 0.308 |

| Sequence | shrunken log2 fold change |
| --- | --- |
| RRIRRRPPRLPRPRPRPYWAPRP | -0.199 |
| RRIRDRPPRLPRPRPRPDSEPRP | -0.0121 |
| RRIRFRPPRLPRPRPRPIYTPRP | -0.424 |
| RRIRFRPPRLPRPRPRPTPHPRP | 0.333 |
| RRIRSRPPRLPRPRPRPHCAPRP | -0.0311 |
| RRIRMRPPRLPRPRPRPEQDPRP | 0.0255 |
| RRIRSRPPRLPRPRPRPHDIPRP | -0.0108 |
| RRIRIRPPRLPRPRPRPSNDPRP | -0.779 |
| RRIRLRPPRLPRPRPRPTVDPRP | -0.131 |
| RRIRPRPPRLPRPRPRPETWPRP | 0.1 |
| RRIRGRPPRLPRPRPRPKHAPRP | 1.21 |
| RRIRIRPPRLPRPRPRPRLVPRP | 0.22 |
| RRIRIRPPRLPRPRPRPWWWPRP | -0.115 |
| RRIRFRPPRLPRPRPRPLEMPRP | -0.357 |
| RRIRNRPPRLPRPRPRPLAWPRP | 0.00628 |
| RRIRARPPRLPRPRPRPECCPRP | 0.996 |
| RRIRMRPPRLPRPRPRPTWVPRP | 0.496 |
| RRIRWRPPRLPRPRPRPFDEPRP | 0.129 |
| RRIRCRPPRLPRPRPRPMTSPRP | -0.0603 |
| RRIRYRPPRLPRPRPRPITEPRP | -0.101 |
| RRIRDRPPRLPRPRPRPYKNPRP | -0.454 |
| RRIRQRPPRLPRPRPRPDVHPRP | -0.304 |
| RRIRCRPPRLPRPRPRPLATPRP | 0.146 |
| RRIRTRPPRLPRPRPRPFLMPRP | -0.378 |
| RRIRERPPRLPRPRPRPNVLPRP | -0.0106 |

| Sequence | shrunken log2 fold change |
| --- | --- |
| RRIRMRPPRLPRPRPRPLTLPRP | -0.1 |
| RRIRRRPPRLPRPRPRPCMTPRP | 0.409 |
| RRIRVRPPRLPRPRPRPPFCPRP | 1.39 |
| RRIRNRPPRLPRPRPRPMNHPRP | 0.0515 |
| RRIRVRPPRLPRPRPRPKDDPRP | 0.0252 |
| RRIRYRPPRLPRPRPRPGHPPRP | -0.0687 |
| RRIRFRPPRLPRPRPRPGDNPRP | -0.0236 |
| RRIRPRPPRLPRPRPRPSRFPRP | 0.227 |
| RRIRLRPPRLPRPRPRPFIPPRP | -0.355 |
| RRIRPRPPRLPRPRPRPRHRPRP | 0.177 |
| RRIRWRPPRLPRPRPRPFMPPRP | -0.714 |
| RRIRERPPRLPRPRPRPWCMPRP | -0.533 |
| RRIRFRPPRLPRPRPRPRCKPRP | 0.0452 |
| RRIRKRPPRLPRPRPRPSQVPRP | 0.31 |
| RRIRMRPPRLPRPRPRPSNRPRP | -0.0397 |
| RRIRCRPPRLPRPRPRPDIHPRP | -0.468 |
| RRIRDRPPRLPRPRPRPGTMPRP | -0.302 |
| RRIRQRPPRLPRPRPRPYYSPRP | -0.39 |
| RRIRNRPPRLPRPRPRPKTYPRP | -1.23 |
| RRIRERPPRLPRPRPRPRQVPRP | -0.0483 |
| RRIRIRPPRLPRPRPRPQQQPRP | -0.061 |
| RRIRHRPPRLPRPRPRPKPAPRP | 0.0168 |
| RRIRPRPPRLPRPRPRPYDPPRP | -0.301 |
| RRIRNRPPRLPRPRPRPALIPRP | 0.0102 |
| RRIRDRPPRLPRPRPRPKRMPRP | 0.0969 |

| Sequence | shrunken log2 fold change |
| --- | --- |
| RRIRERPPRLPRPRPRPETQPRP | 0.0866 |
| RRIRMRPPRLPRPRPRPPFVPRP | 0.267 |
| RRIRQRPPRLPRPRPRPEGCPRP | -0.0749 |
| RRIRTRPPRLPRPRPRPFGGPRP | -0.0397 |
| RRIRNRPPRLPRPRPRPCEQPRP | -0.00776 |
| RRIRTRPPRLPRPRPRPMCKPRP | -0.0839 |
| RRIRIRPPRLPRPRPRPSHQPRP | 0.0866 |
| RRIRNRPPRLPRPRPRPWRHPRP | -0.109 |
| RRIRKRPPRLPRPRPRPGPEPRP | 1.1 |
| RRIRLRPPRLPRPRPRPPYEPRP | -0.468 |
| RRIRGRPPRLPRPRPRPPMGPRP | 0.59 |
| RRIRERPPRLPRPRPRPAAMPRP | 0.102 |
| RRIRFRPPRLPRPRPRPVDSPRP | 0.0218 |
| RRIRIRPPRLPRPRPRPHCTPRP | -0.0502 |
| RRIRFRPPRLPRPRPRPRIWPRP | 0.051 |
| RRIRMRPPRLPRPRPRPLPWPRP | 1.74 |
| RRIRFRPPRLPRPRPRPTVTPRP | 0.052 |
| RRIRLRPPRLPRPRPRPYWLPRP | -0.54 |
| RRIRRRPPRLPRPRPRPRNVPRP | 0.226 |
| RRIRRRPPRLPRPRPRPDQLPRP | -0.0202 |
| RRIRDRPPRLPRPRPRPWFEPRP | -0.175 |
| RRIRQRPPRLPRPRPRPDSAPRP | -0.029 |
| RRIRMRPPRLPRPRPRPPKMPRP | 0.477 |
| RRIRLRPPRLPRPRPRPPRAPRP | 0.875 |
| RRIRTRPPRLPRPRPRPVRMPRP | 0.148 |
